Results taken from patent US20200384083A1 (SINGAPORE HEALTH SERVICES PTE, published 2020).

How the values were obtained:
[1] = biological target: T1, human IL11RA (analyte in the Biacore assay) (human, UniProt Q14626 23-370, limits assumed); experiment: SPR (Biacore T200): X209 captured on an anti-mouse capture chip, human IL11RA injected as analyte at 1.56 nM to 100 nM, 1:1 Langmuir fit
T1 construct: also called IL-11Rα
T1 sequence: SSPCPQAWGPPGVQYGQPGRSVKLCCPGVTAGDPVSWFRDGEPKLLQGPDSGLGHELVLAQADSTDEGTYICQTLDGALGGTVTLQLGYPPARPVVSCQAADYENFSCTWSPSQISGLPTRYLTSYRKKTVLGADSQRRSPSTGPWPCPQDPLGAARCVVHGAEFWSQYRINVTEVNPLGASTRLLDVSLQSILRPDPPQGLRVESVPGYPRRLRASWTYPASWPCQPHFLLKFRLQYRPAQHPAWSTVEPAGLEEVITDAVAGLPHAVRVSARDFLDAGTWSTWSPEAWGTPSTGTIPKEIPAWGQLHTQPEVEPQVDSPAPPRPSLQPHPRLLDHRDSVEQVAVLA
Method: (§1) Binding of X209 to human IL11RA was measured on Biacore T200 (GE Healthcare). X209 was immobilized onto an anti-mouse capture chip. Interaction assays were performed with HEPES-buffered saline pH 7.4 containing 0.005% P20 and 0.5% BSA. A concentration range (1.56 nM to 100 nM) of the analyte (human IL11 RA) was injected over X209 and reference surfaces at a flow rate of 40 μl min⁻¹. Binding to mouse 1111ra1 was confirmed on Octet system (ForteBio) using a similar strategy. All sensograms were aligned and double-referenced⁴. Affinity and kinetic constants were determined by fitting the corrected sensorgrams with 1:1 Langmuir model. The equilibrium binding constant KD was determined by the ratio of kd/kₐ.

mouse IL-11Rα (Il11ra1) = biological target: T2, mouse IL-11Rα (Il11ra1) (mouse, UniProt Q64385 24-372, limits assumed); experiment: BLI, Octet (ForteBio)
T2 construct: also called mouse Il11ra1
T2 sequence (looked up): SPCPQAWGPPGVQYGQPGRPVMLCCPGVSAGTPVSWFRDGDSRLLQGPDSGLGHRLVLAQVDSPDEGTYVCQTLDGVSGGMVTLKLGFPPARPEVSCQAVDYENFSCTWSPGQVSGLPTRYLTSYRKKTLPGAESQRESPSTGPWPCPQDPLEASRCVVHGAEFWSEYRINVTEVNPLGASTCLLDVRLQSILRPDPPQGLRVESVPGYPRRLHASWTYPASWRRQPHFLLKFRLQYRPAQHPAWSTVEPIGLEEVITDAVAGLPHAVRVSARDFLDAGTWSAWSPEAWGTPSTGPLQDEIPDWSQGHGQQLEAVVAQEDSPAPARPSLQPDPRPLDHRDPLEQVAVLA

[2] = biological target: T1, human IL11RA (analyte in the Biacore …); experiment: SPR, Biacore T200; X209 captured on an anti-mouse chip, human IL11RA as analyte (1.56 nM to 100 nM), 1:1 Langmuir fit
Method: as §1

Kd [1]: 6.01 nM
koff [1]: 0.000757 s⁻¹
kon [1]: 126000 M⁻¹ s⁻¹
binding result (mouse IL-11Rα (Il11ra1)): binds
Kd [2]: 6 nM
B1: mouse anti-mouse IL-11Rα IgG X209 (antibody, V domains shown)
VH: QVQLQQPGAELVRPGSSVKLSCKASGYTFTNYWMHWLKQRPVQGLEWIGNIGPSDSKTHYNQKFKDKATLTVDKSSSTAYMQLNSLTSEDSAVYYCARGDYVLFTYWGQGTLVTVSA
VL: DIVLTQSPATLSLSPGERATLSCRASQSISNNLHWYQQKSHEAPRLLIKYASQSISGIPARFSGSGSGTDFTLSFSSLETEDFAVYFCQQSYSWPLTFGQGTKLEIK
notes: also called Enx209; neutralizing anti-IL11RA
